Assays:
Assay in all cases: protein-fragment complementation
[1] = molecular target: Abp1 (UniProt P15891)
[2] = molecular target: Aim21 (UniProt P40563)
[3] = molecular target: Arc15 (UniProt P40518)
[4] = molecular target: Arc18 (UniProt Q05933)
[5] = molecular target: Arc19 (UniProt P33204)
[6] = molecular target: Arc40 (UniProt P38328)
[7] = molecular target: Bbc1 (UniProt P47068)
[8] = molecular target: Bmh1 (UniProt P29311)
[9] = molecular target: Bzz1 (UniProt P38822)
[10] = molecular target: Cdc10 (UniProt P25342)
[11] = molecular target: Cdc3 (UniProt P32457)
[12] = molecular target: Chc1 (UniProt P22137)
[13] = molecular target: Cmd1 (UniProt P06787)
[14] = molecular target: Hek2 (UniProt P38199)
[15] = molecular target: Hsp104 (UniProt P31539)
[16] = molecular target: Las17 (UniProt Q12446)
[17] = molecular target: Lsb3 (UniProt P43603)
[18] = molecular target: Mid2 (UniProt P36027)
[19] = molecular target: Myo5 (UniProt Q04439)
[20] = molecular target: Nap1 (UniProt P25293)
[21] = molecular target: Osh2 (UniProt Q12451)
[22] = molecular target: Pab1 (UniProt P04147)
[23] = molecular target: Pan1 (UniProt P32521)
[24] = molecular target: Pfk1 (UniProt P16861)
[25] = molecular target: Pkh2
[26] = molecular target: Rvs167 (UniProt P39743)
[27] = molecular target: Sac6 (UniProt P32599)
[28] = molecular target: Sbp1 (UniProt P10080)
[29] = molecular target: Sfk1 (UniProt P35735)
[30] = molecular target: Sla1 (UniProt P32790)
[31] = molecular target: Sla2 (UniProt P33338)
[32] = molecular target: Smi1 (UniProt P32566)
[33] = molecular target: Srv2 (UniProt P17555)
[34] = molecular target: Ssa1 (UniProt P10591)
[35] = molecular target: Ssb1 (UniProt P11484)
[36] = molecular target: Ssb2 (UniProt P40150)
[37] = molecular target: Ssz1 (UniProt P38788)
[38] = molecular target: Ste20 (UniProt Q03497)
[39] = molecular target: Syp1 (UniProt P25623)
[40] = molecular target: Tdh3 (UniProt P00359)
[41] = molecular target: Tif4631 (UniProt P39935)
[42] = molecular target: Vrp1 (UniProt P37370)
[43] = molecular target: Ygl242c (UniProt P53066)
[44] = molecular target: Yor1 (UniProt P53049)
[45] = molecular target: Ysc84 (UniProt P32793)

UniProt Q03497, sequence (Q03497 whole entry): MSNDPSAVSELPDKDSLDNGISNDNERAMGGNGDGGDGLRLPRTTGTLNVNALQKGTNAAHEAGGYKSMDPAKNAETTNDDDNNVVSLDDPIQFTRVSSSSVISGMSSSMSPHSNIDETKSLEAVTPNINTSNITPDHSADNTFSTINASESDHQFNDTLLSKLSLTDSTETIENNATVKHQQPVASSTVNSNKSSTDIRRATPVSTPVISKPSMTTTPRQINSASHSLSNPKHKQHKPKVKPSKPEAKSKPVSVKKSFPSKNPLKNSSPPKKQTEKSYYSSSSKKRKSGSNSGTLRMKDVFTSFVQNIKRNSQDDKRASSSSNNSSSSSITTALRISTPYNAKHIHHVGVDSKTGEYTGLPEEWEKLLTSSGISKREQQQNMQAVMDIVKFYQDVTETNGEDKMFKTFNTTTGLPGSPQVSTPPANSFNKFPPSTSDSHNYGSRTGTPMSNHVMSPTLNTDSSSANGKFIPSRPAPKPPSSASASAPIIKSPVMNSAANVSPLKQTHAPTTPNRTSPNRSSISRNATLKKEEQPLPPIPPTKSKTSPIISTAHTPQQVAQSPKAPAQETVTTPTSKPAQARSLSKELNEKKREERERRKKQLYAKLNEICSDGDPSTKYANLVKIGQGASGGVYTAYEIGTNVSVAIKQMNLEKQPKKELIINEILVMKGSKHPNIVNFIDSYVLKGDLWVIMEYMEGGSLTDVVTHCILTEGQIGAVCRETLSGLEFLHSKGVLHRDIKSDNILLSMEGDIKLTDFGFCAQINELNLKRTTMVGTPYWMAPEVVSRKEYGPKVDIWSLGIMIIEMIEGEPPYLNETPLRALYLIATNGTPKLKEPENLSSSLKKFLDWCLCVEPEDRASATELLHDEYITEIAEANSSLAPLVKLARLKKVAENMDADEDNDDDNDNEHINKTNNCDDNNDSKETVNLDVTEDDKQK
UniProt P11484, sequence (P11484 whole entry): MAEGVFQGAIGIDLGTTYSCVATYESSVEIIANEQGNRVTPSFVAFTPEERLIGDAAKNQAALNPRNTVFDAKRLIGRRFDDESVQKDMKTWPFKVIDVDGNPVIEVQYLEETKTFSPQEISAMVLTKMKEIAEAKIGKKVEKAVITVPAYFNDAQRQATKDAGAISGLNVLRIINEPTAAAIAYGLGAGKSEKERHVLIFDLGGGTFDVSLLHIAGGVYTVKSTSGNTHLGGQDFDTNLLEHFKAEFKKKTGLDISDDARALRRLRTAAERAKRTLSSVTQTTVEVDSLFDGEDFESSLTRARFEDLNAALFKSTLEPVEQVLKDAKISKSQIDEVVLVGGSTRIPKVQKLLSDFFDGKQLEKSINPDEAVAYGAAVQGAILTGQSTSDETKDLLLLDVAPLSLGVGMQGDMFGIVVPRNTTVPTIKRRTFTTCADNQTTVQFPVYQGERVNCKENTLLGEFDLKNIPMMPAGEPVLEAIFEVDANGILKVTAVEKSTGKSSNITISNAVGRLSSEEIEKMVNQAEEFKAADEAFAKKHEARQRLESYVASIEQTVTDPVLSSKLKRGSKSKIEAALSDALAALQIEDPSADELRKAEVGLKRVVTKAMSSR
UniProt P33338, sequence (P33338 whole entry): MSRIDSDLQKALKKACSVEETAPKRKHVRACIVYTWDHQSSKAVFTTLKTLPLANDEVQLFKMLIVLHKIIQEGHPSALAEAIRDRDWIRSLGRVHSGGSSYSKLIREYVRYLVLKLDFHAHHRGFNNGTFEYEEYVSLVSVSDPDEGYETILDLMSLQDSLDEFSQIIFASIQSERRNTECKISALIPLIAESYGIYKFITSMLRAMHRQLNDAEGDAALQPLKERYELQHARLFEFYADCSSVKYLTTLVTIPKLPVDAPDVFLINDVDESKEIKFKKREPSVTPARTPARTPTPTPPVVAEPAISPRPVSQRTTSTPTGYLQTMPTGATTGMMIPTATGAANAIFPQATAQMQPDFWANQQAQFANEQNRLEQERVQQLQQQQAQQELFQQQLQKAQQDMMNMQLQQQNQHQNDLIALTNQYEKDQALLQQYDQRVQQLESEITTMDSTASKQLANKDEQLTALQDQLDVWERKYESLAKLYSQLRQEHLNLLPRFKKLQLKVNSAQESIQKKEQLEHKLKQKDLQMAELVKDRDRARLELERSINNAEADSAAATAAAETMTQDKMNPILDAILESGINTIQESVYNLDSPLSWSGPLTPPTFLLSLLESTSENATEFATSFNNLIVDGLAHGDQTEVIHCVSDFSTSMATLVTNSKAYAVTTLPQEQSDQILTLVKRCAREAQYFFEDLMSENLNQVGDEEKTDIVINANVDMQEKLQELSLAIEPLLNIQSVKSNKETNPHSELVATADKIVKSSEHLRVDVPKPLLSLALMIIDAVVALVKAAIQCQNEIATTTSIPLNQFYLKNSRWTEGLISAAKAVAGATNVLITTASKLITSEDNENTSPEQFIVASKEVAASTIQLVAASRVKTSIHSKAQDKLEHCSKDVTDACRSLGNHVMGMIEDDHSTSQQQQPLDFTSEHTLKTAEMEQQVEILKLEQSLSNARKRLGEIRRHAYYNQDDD
UniProt P47068, sequence (P47068 whole entry): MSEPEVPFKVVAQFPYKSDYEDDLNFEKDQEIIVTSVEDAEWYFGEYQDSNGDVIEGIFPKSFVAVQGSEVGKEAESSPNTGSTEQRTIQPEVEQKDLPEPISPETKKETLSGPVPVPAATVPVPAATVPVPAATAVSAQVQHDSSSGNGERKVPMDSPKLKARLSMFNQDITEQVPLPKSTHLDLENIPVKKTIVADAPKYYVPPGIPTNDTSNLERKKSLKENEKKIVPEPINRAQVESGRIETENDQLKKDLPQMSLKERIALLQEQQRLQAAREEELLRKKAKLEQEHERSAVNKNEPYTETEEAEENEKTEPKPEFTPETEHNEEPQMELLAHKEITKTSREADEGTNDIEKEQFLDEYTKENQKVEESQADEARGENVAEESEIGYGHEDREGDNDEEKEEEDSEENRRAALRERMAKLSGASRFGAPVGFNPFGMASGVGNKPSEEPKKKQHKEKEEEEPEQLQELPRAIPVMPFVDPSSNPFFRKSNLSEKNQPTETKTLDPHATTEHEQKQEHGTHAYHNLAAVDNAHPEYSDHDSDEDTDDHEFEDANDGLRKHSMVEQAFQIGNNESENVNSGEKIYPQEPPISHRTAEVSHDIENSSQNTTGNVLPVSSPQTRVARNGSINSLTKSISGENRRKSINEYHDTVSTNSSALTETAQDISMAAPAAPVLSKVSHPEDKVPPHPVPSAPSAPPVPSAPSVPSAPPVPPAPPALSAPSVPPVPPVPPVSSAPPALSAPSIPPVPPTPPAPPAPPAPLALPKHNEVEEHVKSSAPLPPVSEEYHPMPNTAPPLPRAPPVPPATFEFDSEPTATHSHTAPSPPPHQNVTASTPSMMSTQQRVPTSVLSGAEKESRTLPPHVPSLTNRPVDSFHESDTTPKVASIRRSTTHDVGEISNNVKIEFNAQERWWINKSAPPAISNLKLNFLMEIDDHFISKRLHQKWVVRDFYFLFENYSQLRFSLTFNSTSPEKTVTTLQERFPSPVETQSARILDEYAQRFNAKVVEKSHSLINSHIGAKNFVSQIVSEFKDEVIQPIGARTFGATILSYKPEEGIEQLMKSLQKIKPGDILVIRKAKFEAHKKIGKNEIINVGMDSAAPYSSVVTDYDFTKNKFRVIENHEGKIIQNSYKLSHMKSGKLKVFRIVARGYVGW
UniProt P32457, sequence (P32457 whole entry): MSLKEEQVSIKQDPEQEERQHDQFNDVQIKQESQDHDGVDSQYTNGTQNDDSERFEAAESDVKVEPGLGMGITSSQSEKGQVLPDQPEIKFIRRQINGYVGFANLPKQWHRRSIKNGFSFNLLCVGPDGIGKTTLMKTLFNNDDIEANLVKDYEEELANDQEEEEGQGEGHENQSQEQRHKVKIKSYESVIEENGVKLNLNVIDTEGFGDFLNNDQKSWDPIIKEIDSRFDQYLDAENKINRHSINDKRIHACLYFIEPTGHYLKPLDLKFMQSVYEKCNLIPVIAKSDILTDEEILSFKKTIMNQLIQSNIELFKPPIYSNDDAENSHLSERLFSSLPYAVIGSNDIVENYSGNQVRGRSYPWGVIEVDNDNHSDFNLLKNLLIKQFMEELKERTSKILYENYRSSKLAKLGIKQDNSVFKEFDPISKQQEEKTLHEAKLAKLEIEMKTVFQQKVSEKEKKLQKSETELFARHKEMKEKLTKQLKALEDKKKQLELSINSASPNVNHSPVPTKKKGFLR
UniProt P38328, sequence (P38328 whole entry): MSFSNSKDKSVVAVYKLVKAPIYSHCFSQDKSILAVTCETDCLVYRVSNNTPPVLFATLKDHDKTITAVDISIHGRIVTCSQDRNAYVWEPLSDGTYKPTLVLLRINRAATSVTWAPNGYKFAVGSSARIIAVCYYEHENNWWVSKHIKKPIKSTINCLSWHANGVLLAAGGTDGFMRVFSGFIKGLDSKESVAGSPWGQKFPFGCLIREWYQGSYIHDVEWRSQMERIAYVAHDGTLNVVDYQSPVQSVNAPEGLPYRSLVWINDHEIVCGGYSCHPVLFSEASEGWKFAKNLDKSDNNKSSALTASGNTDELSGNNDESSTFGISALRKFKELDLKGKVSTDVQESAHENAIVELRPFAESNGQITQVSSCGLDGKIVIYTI
UniProt P25342, sequence (P25342 whole entry): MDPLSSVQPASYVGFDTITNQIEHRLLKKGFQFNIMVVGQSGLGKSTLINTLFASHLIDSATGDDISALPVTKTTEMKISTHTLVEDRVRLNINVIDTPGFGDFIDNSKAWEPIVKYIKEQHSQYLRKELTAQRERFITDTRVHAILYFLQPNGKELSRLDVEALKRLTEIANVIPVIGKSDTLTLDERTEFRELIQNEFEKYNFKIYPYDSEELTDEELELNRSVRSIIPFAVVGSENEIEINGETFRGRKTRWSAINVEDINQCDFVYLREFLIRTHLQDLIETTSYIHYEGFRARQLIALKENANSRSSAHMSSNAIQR
UniProt P40150, sequence (P40150 whole entry): as the sequence (P11484 whole entry) above, with E49Q, M413I, C435V, A436S counted along it

Myo5 with SH3 AncD (from UniProt Q04439)
interaction score [1]: 0.878
interaction score [2]: 0.647
interaction score [3]: 0.887
interaction score [4]: 0.825
interaction score [5]: 0.655
interaction score [6]: 0.952
interaction score [7]: 0.562
interaction score [8]: 0.838
interaction score [9]: 0.701
interaction score [10]: 0.31
interaction score [11]: 0.353
interaction score [12]: 0.589
interaction score [13]: 0.278
interaction score [14]: 0.351
interaction score [15]: 0.77
interaction score [16]: 0.785
interaction score [17]: 0.487
interaction score [18]: 0.827
interaction score [19]: 0.862
interaction score [20]: 0.463
interaction score [21]: 0.352
interaction score [22]: 0.805
interaction score [23]: 0.87
interaction score [24]: 0.862
interaction score [25]: 0.0507
interaction score [26]: 0.273
interaction score [27]: 0.793
interaction score [28]: 0.83
interaction score [29]: 0.545
interaction score [30]: 0.309
interaction score [31]: 0.473
interaction score [32]: 0.551
interaction score [33]: 0.522
interaction score [34]: 0.903
interaction score [35]: 0.935
interaction score [36]: 0.938
interaction score [37]: 0.848
interaction score [38]: 0.718
interaction score [39]: 0.338
interaction score [40]: 0.968
interaction score [41]: 0.687
interaction score [42]: 0.855
interaction score [43]: 0.949
interaction score [44]: 0.254
interaction score [45]: 0.318
